PMC11852163, “Development and Characterization of CD44-Targeted X-Aptamers with Enhanced Binding Affinity for Cancer Therapeutics”

Columns and labels:
[1] = target: CD44-HABD (UniProt P16070); experiment: filter binding; details: monothioate backbone, Filter binding: 1 nM biotinylated XA, 20 mM Tris pH 8.0, 150 mM NaCl, 40 min, room temperature, cell binding at room temperature, 30-60 min
[2] = target: CD44-HABD (UniProt P16070 20-178); experiment: filter binding; Filter binding: 1 nM biotinylated XA, 20 mM Tris pH 8.0, 150 mM NaCl, 40 min, room temperature; cell binding at room temperature, 30-60 min; details: protein: recombinant; label: biotin
Sequence of CD44-HABD (UniProt P16070 20-178) (P16070 20-178): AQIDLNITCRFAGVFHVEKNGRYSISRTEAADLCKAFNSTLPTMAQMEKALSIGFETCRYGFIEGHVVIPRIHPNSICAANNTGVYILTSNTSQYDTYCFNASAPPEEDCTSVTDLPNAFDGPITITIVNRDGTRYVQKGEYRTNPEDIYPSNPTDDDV

Sequence of CD44-HABD (UniProt P16070) (P16070 20-178): as above

With “TTGGGGCCTGCAAGACGTCCATAGACACAG [XA4-ADDA]” as the molecule, how does the Kd ([1]; X = T18 as ADDA-conjugated amino-dU) read?
Its Kd is 103 nM.

How did the Kd ([1]; X = T18 as amino-dU) turn out when “TTGGGGCCTGCAAGACGTCCATAGACACAG [XA4-NH2]” was run?
The Kd was 137 nM.

Which Kd ([1]; X = T9, T11 as 5-(aminoethyl-3-acrylimido)-dU) does the source give for “TTAAGATCTGTTAGGGAACCAAGACGACAG [XA1-NH2]” here?
The Kd was 55.5 nM.

How did the Kd ([1]; X = T14 as amino-dU) turn out when “TTAAGATCTGCAATGTAACCATAGACACAG [XA9-NH2]” was run?
The Kd was 111 nM.

“TTAAGATCTGCAATGTAACCATAGACACAG [XA9-ADDA]” was tested. Which Kd ([1]; X = T14 as ADDA-conjugated amino-dU) did it give?
Its Kd is 77.6 nM.

For “TTAAGATCTGTTAGGGAACCAAGACGACAG [XA1-ADDA]”, which Kd ([1]; X = T9, T11 as ADDA-conjugated amino-dU) is on record?
Its Kd is 78.3 nM.

Which Kd ([1]; X = T7, T18 as ADDA-conjugated amino-dU) does the source give for “TGCAGATACAGTAAACGTCCATAGACACAG [XA5-ADDA]” here?
Its Kd is 125 nM.

For “TGCAGATACAGTAAACGTCCATAGACACAG [XA5-NH2]”, which Kd ([1]; X = T7, T18 as amino-dU) is on record?
The Kd was 137 nM.

B1: XA2-NH2 (XNA)
DNA: TGCAGATCTGCAAGGGAACCAAGGACACTAC
modifications: NH2 form; no X in the printed sequence, X position unknown; monothioate backbone
Which Kd [2] does the source give for B1 here?
Its Kd is 62.9 ± 10.3 nM.

B2: XA2-ADDA (XNA)
DNA: TGCAGATCTGCAAGGGAACCAAGGACACTAC
modifications: ADDA form; no X in the printed sequence, X position unknown; monothioate backbone
For B2, which Kd [2] is on record?
The Kd was 109 ± 15.4 nM.
